These results are taken from patent US20250145729A1 (DENALI THERAPEUTICS, published 2025).

Positions count from the first letter of the chain named. Names and notes keep the numbering of the source.

The target of experiment [1] is T1, human CD98hc (human, UniProt P08195 109-529).
T1 construct: also called huCD98hc; CD98 heavy chain
T1 sequence: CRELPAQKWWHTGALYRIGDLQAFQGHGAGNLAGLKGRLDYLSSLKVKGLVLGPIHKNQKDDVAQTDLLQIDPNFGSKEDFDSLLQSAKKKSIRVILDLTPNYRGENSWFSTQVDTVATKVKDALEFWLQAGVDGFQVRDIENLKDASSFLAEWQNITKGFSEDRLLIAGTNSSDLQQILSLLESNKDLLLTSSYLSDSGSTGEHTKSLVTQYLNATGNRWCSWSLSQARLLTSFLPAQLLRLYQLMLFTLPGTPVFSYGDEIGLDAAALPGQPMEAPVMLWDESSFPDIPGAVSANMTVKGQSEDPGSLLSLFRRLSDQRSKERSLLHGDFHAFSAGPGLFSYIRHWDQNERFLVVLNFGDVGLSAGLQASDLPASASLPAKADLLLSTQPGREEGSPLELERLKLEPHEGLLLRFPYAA
Nature of the experiment: affinity as listed in study design table; method not given there; Bivalent, NBF Fabs.

For experiment [2], the target named is T2, human TfR on HEK293T cells (human, UniProt P02786 1-760).
T2 construct: also called huTfR expressing cells; human TfR-positive cells
Nature of the experiment: cell uptake at 37 C into HEK293T human TfR positive cells, anti-human IgG staining, imaging (corrected spot intensity). As to the method: (§1) HEK293T, CHO:cyTfR, and CHO cells were plated at 40,000 cells/well of 96-well plates in standard growth media (DMEM (Gibco™ 11995073)+10% FBS (VWR 89510⁻¹⁸⁸)+1×Pen/Strep (Gibco 15140122)). Approximately 24 hours later, molecules were diluted into standard growth media warmed to 37° C. Old media was removed from the cells, and the diluted molecules were added to the cells. Cells were incubated at 37° C. for 45 minutes. Cells were then washed with PBS and then fixed for 10 minutes in 4% PFA (Electron Microscopy Sciences 15714-S). Cells were washed with PBS and then blocked with 5% BSA, 0.3% TritonX100 in PBS for 30 minutes. […] Cells were washed with PBS, imaged on an Opera Phenix, and images were analyzed with Harmony software.

Experiment [3] concerns the target T3, circularly permuted human TfR apical domain (human, biotin on the Avi tag).
T3 construct: a linker between the two segments is not described; also called huTfR apical domain; not shown: Avi tag and PreScission site left after Ulp1 cleavage
T3 chain: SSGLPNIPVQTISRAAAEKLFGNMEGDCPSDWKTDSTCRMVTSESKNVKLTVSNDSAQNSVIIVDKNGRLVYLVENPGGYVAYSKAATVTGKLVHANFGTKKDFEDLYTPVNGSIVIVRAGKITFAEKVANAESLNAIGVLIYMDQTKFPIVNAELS
Nature of the experiment: SPR. As to the method: (§2) Biacore™ Series S CM5 sensor chips were immobilized with anti-human Fab (GE Healthcare, 28958325). Molecules were captured on each flow cell and serial 3-fold dilutions of human TfR apical domain (2, 0.67, 0.22, 0.074, 0.025, and 0 μM) and cynomologous TfR apical domain (4, 1.3, 0.44, 0.15, 0.05, and 0 μM) were injected at a flow rate of 30 μL/min using single cycle kinetics method. Each sample was analyzed with a 60-second association and a 3-minute dissociation. After each cycle, the chip was regenerated using 10 mM glycine-HCl (pH 2.1) for 30 seconds at 50 μL/min. Binding response was corrected by subtracting the RU from a reference flow cell. A 1:1 Langmuir model of simultaneous fitting of kₒₙ and koff was used for kinetics analysis using Biacore™ 8K Evaluation Software. Table 32A below summarizes the binding affinities of selected clones for human and cynomolgus TfR apical domains.
(§3) The phage library was panned against biotinylated human TfR apical domain immobilized to magnetic streptavidin beads. Four rounds of phage panning were performed and enriched clones were sequenced. Unique hits were cloned onto an anti-BACE1 hIgG1 monoclonal antibody containing the “LALA” mutations, expressed in HEK293 cells, and purified by protein A chromatography. Affinity to human and cyno TfR apical domain was measured by SPR. Clones were evaluated for TfR-specific cell binding (FIGS. 43A and 43B).
Background: Surface plasmon resonance follows binding to a sensor surface in real time, without labels.

The target of experiment [4] is T4, circularly permuted cyno TfR apical domain (cynomolgus monkey, biotin on the Avi tag).
T4 construct: a linker between the two segments is not described; also called cyTfR apical domain; not shown: Avi tag and PreScission site left after Ulp1 cleavage
T4 chain: T3 chain with R39K, S45N, N47S, R69G, Y108D, T109S, N153K, E155D
The experiment is described as follows: SPR. The protocol: as §2, §3

Experiment [5] addresses T5, cynomolgus monkey TfR on CHO cells (cynomolgus monkey, UniProt Q5RDH6 1-760 (Pongo abelii entry)).
T5 construct: also called CHO:cyTfR; cyTfR expressing cells
T5 chain: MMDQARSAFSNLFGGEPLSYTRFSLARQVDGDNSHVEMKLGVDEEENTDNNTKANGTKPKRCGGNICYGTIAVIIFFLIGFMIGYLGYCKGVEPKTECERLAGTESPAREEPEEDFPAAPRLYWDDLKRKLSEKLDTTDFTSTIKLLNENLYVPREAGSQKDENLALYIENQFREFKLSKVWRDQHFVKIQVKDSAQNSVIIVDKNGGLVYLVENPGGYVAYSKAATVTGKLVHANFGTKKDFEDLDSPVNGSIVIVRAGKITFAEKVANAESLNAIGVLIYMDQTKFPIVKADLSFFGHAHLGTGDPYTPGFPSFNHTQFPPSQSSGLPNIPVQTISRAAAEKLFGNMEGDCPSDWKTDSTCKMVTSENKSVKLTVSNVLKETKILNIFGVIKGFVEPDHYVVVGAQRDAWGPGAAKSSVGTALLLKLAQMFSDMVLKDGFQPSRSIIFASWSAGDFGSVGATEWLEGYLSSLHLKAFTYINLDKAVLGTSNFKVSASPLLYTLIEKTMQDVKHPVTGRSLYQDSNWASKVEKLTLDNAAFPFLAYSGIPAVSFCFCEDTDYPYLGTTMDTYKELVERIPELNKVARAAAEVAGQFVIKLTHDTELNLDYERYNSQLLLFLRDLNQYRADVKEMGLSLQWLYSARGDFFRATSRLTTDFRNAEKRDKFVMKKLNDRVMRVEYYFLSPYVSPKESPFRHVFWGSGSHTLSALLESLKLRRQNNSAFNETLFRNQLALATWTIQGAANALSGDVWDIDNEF
Nature of the experiment: cell uptake at 37 C into CHO cells expressing cynomolgus monkey TfR, anti-human IgG staining, imaging (corrected spot intensity). The protocol: as §1

The target of experiment [6] is T6, TfR (Homo sapiens (Human), UniProt P02786 121-760, limits assumed).
T6 construct: also called transferrin receptor
Nature of the experiment: Biacore, control sample kept in PBS. As to the method: (§4) Clone 6.5.11.5.42.2, with and without LS mutations, was assessed for low pH stability during developability assessment. The tested proteins are bivalent Fc-Fab fusion polypeptides comprising an anti-HER2 Fab domain linked to two Fc polypeptides each having the sequence of the identified clone and LALA mutations, with LS mutations or without LS mutations. An Fc control containing the anti-HER2 Fab domain linked to an Fc domain with LALA mutations and without TfR-binding sites was included for comparison.
(§5) Aliquots (100 μL) of each clone were added to wells of a 96-well plate containing 6 μL of 5% (v/v) acetic acid and mixed well. The plate was sealed and incubated at room temperature for about three (3) hours. Subsequently, 35 μL of 1 M Tris HCl (pH 7.5) was added to the samples and mixed well. The plate was sealed once again and incubated at room temperature for 24 hours. Control condition was storage in 1× PBS without any change in pH during incubation. The samples were then analyzed by Biacore for binding affinity and by size exclusion chromatography to detect intact fusion protein. FIG. 22 and Table 26 provide the results of the analyses.

In experiment [7] the target is T6, TfR. The experiment is described as follows: Biacore, after low pH hold and neutralisation. The protocol: as §4, §5
Experiment [8] addresses T1, human CD98hc. Nature of the experiment: affinity as listed in study design table; method not given there.
In experiment [9] the target is T1, human CD98hc. Described as above. This is another data set of the same source.
Experiment [10] has as its target T1, human CD98hc. The experiment is described as above. This is another data set of the same source.

B1: Clone 4: LLB1-3 D380E bivalent, non-binding Fabs (Fc fusion)
chain: APELLGGPSVFLFPPKPKDTLMISRTPEVTCVVVDVSHEDPEVKFNWYVDGVEVHNAKTKPREEQYNSTYRVVSVLTVLHQDWLNGKEYKCKVSNKALPAPIEKTISKAKGQPREPQVYTLPPSRDELTKNQVSLTCLVKGFYPSDIAVEWRSYKPYENNYKTTPPVLDSDGSFFLYSKLTVDKSRWQQGNIFVCDVMHEALHNHYTIKKLSLSPGK
notes: bivalent; effector positive
In experiment [1], B1 came in with a Kd of 1000 nM.

B2: Clone 1 with LALA (Fc fusion)
chain: APEAAGGPSVFLFPPKPKDTLMISRTPEVTCVVVDVSHEDPEVKFNWYVDGVEVHNAKTKPREEQYNSTYRVVSVLTVLHQDWLNGKEYKCKVSNKALPAPIEKTISKAKGQPREPQVYTLPPSRDELTKNQVSLTCLVKGFYPSDIAVKWGSEVAPENNYKTTPPVLDSDGSFFLYSKLTVDKSRWQQGNIFACTVMHEALHNHYTLKMLSLSPGK
notes: Fc part only
Consider B2, for which the binding result in experiment [2] and in experiment [5] was “binds” throughout. Besides, the Kd was determined as 480 nM in experiment [3] and 1800 nM in [4].

B3: Clone 3 with LALA (Fc fusion)
chain: B2 chain with K150L, E154A, I192V, L208V, M210G
notes: Fc part only
For the molecule B3, the binding result in experiment [2] and in experiment [5] was “binds” throughout. Moreover, the values for the Kd in experiment [3] and in [4] were 1500 nM and 6000 nM, respectively.

B4: 42.2 LALA (bivalent clone 6.5.11.5.42.2 with LALA, anti-HER2 Fab) (Fc fusion)
chain: APEAAGGPSVFLFPPKPKDTLMISRTPEVTCVVVDVSHEDPEVKFNWYVDGVEVHNAKTKPREEQYNSTYRVVSVLTVLHQDWLNGKEYKCKVSNKALPAPIEKTISKAKGQPREPQVYTLPPSRDELTKNQVSLTCLVKGFYPSDIAVEWFSDGSKETNYKTTPPVLDSDGSFFLYSKLTVDKSRWQQGNLFACEVMHEALHNHYTYKLLSLSPGK
With B4, the Kd in [6] worked out at 1170 nM; in [7] it was 1180 nM.

B5: 42.2 LALA LS (bivalent clone 6.5.11.5.42.2 with LALA and LS, anti-HER2 Fab) (Fc fusion)
chain: B4 chain with M198L, N204S
As to B5, the results for the Kd in experiment [6] and in [7] were 1700 nM and 1810 nM, respectively.

B6: Clone 1: LLB2-10-8 bivalent, BACE1 Fabs (Fc fusion)
chain: APELLGGPSVFLFPPKPKDTLMISRTPEVTCVVVDVSHEDPEVKFNWYVDGVEVHNAKTKPREEQYNSTYRVVSVLTVLHQDWLNGKEYKCKVSNKALPAPIEKTISKAKGQPREPQVYTLPPSRDELTKNQVSLTCLVKGFYPSDIAVLWNSRFVLENNYKTTPPVLDSDGSFFLYSKLTVDKSRWQQGEIFACNVYHEALHNHYTFKNLALSPGK
notes: bivalent; effector positive
In experiment [8], B6 displayed a Kd of 100 to 200 nM.

B7: Clone 26: LLB2-10-8 bivalent, non-binding Fabs (Fc fusion)
chain: B6 chain
notes: bivalent; effector positive
On to B7, for which the Kd in experiment [9] and in [10] was 100 to 200 nM each time.

B8: Clone 28: LLB2-37 bivalent, non-binding Fabs (Fc fusion)
chain: B6 chain with R154Q, V156H, E191N, A212L
notes: bivalent; effector positive
B8 had a Kd in experiment [10] of 390 nM.
